In data set [1] the target is T1, PARLSkd3 (human CLPB) (Homo sapiens, UniProt Q9H078).
T1 sequence (Q9H078 127-707): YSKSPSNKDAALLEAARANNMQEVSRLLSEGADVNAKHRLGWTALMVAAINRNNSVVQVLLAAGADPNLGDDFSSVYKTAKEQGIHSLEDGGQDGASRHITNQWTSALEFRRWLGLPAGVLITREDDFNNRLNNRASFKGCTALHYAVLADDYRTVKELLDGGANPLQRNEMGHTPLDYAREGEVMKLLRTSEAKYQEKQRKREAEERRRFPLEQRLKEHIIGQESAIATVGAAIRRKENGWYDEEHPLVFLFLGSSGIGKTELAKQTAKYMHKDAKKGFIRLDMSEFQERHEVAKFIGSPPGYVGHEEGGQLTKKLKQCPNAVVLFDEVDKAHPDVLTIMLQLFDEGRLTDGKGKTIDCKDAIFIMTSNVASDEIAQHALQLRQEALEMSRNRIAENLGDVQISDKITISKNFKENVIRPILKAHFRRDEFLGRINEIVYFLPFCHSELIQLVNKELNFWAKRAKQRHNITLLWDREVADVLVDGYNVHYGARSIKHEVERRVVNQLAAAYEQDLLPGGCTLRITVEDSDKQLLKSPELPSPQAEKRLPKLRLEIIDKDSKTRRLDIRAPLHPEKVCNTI
It counts as biochemical.

For data set [2], the target named is _(PARL)Skd3^NBD (human). In words: cryo-EM structure.
Data set [3] concerns the target _(PARL)Skd3^Δ1-2 (ankyrin repeats 1 and 2 deleted, ΔY127-G196) (human). In words: cryo-EM structure.
Data set [4] shares this target. In words: SEC. Background: In gel filtration, larger molecules generally elute earlier.
Data set [5] deals with the molecule itself. In words: SEC.
Data set [6] deals with the molecule itself.
The target of data set [7] is Casein fluorescein isothiocyanate from bovine milk (FITC-casein) (bovine). In words: fluorescence polarisation.
Data set [8] shares this target. In words: fluorescence polarisation. This is another data set of the same source.
For data set [9] the target is unchanged. In words: fluorescence polarisation. This is another data set of the same source. (In fluorescence polarisation assays a small probe gives low polarisation when free and higher when bound to something large.)

Several values for one entry are separate records, joined by “and”; a condition that tells them apart may be missing. Identical values can stand only once. Like-named read-outs stand apart in the source and are kept apart here.

We go through eight molecules from article PMC9584538 (Cell reports, 2022).

Sequence of Casein fluorescein isothiocyanate from bovine milk (FITC-casein) (bovine) (P02662 16-214): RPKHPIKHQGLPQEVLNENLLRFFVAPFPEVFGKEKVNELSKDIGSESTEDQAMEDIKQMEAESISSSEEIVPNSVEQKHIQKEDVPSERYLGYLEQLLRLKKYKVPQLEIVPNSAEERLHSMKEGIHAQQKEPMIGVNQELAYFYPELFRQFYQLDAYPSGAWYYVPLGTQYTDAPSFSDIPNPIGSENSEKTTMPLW

As a reminder, the IC50 is the concentration that gives 50% inhibition. Take `Nc1ncnc2c1ncn2[C@@H]1O[C@H](CO[P@](=O)(O)O[P@](=O)(O)O[P@@](=O)(O)S)[C@@H](O)[C@H]1O` [ATPγS]: the IC50 in data set [1] is approximately 242 µM.

In data set [1], `Nc1ncnc2c1ncn2[C@@H]1O[C@H](COP(=O)(O)OP(=O)(O)O)[C@@H](O)[C@H]1O` [ADP] came in with a half-maximal inhibitory concentration (IC50) of approximately 1200 µM.

Broadly, the stoichiometry N is the number of molecules, sites or subunits per partner or assembly. _(PARL)Skd3^NBD (domain or fragment) displayed a stoichiometry N in data set [2] of 6.

Take “_(PARL)Skd3^Δ1-2 (ankyrin repeats 1 and 2 deleted, ΔY127-G196) (enzyme)”: the stoichiometry N in data set [3] was found to be 18; in [4] it was 12.

B1: _(PARL)Skd3^ΔL (ANK linker deleted, ΔD197-A262) (enzyme, human, UniProt Q9H078 127-707, looked up)
chain: YSKSPSNKDAALLEAARANNMQEVSRLLSEGADVNAKHRLGWTALMVAAINRNNSVVQVLLAAGADPNLGSFKGCTALHYAVLADDYRTVKELLDGGANPLQRNEMGHTPLDYAREGEVMKLLRTSEAKYQEKQRKREAEERRRFPLEQRLKEHIIGQESAIATVGAAIRRKENGWYDEEHPLVFLFLGSSGIGKTELAKQTAKYMHKDAKKGFIRLDMSEFQERHEVAKFIGSPPGYVGHEEGGQLTKKLKQCPNAVVLFDEVDKAHPDVLTIMLQLFDEGRLTDGKGKTIDCKDAIFIMTSNVASDEIAQHALQLRQEALEMSRNRIAENLGDVQISDKITISKNFKENVIRPILKAHFRRDEFLGRINEIVYFLPFCHSELIQLVNKELNFWAKRAKQRHNITLLWDREVADVLVDGYNVHYGARSIKHEVERRVVNQLAAAYEQDLLPGGCTLRITVEDSDKQLLKSPELPSPQAEKRLPKLRLEIIDKDSKTRRLDIRAPLHPEKVCNTI
For the molecule B1, in data set [5], the “stoichiometry N” value is 12 and 6.

B2: _(PARL)Skd3^ΔL660-I707 (lacking the CTD) (enzyme, human, UniProt Q9H078 127-707, looked up)
chain: YSKSPSNKDAALLEAARANNMQEVSRLLSEGADVNAKHRLGWTALMVAAINRNNSVVQVLLAAGADPNLGDDFSSVYKTAKEQGIHSLEDGGQDGASRHITNQWTSALEFRRWLGLPAGVLITREDDFNNRLNNRASFKGCTALHYAVLADDYRTVKELLDGGANPLQRNEMGHTPLDYAREGEVMKLLRTSEAKYQEKQRKREAEERRRFPLEQRLKEHIIGQESAIATVGAAIRRKENGWYDEEHPLVFLFLGSSGIGKTELAKQTAKYMHKDAKKGFIRLDMSEFQERHEVAKFIGSPPGYVGHEEGGQLTKKLKQCPNAVVLFDEVDKAHPDVLTIMLQLFDEGRLTDGKGKTIDCKDAIFIMTSNVASDEIAQHALQLRQEALEMSRNRIAENLGDVQISDKITISKNFKENVIRPILKAHFRRDEFLGRINEIVYFLPFCHSELIQLVNKELNFWAKRAKQRHNITLLWDREVADVLVDGYNVHYGARSIKHEVERRVVNQLAAAYEQDLLPGGCTLRITVEDSDKQ
Take B2: the “stoichiometry N” value in [6] was 6 and 12.

B3: PARL-protease-activated Skd3 (human CLPB), wild type (enzyme)
chain: YSKSPSNKDAALLEAARANNMQEVSRLLSEGADVNAKHRLGWTALMVAAINRNNSVVQVLLAAGADPNLGDDFSSVYKTAKEQGIHSLEDGGQDGASRHITNQWTSALEFRRWLGLPAGVLITREDDFNNRLNNRASFKGCTALHYAVLADDYRTVKELLDGGANPLQRNEMGHTPLDYAREGEVMKLLRTSEAKYQEKQRKREAEERRRFPLEQRLKEHIIGQESAIATVGAAIRRKENGWYDEEHPLVFLFLGSSGIGKTELAKQTAKYMHKDAKKGFIRLDMSEFQERHEVAKFIGSPPGYVGHEEGGQLTKKLKQCPNAVVLFDEVDKAHPDVLTIMLQLFDEGRLTDGKGKTIDCKDAIFIMTSNVASDEIAQHALQLRQEALEMSRNRIAENLGDVQISDKITISKNFKENVIRPILKAHFRRDEFLGRINEIVYFLPFCHSELIQLVNKELNFWAKRAKQRHNITLLWDREVADVLVDGYNVHYGARSIKHEVERRVVNQLAAAYEQDLLPGGCTLRITVEDSDKQLLKSPELPSPQAEKRLPKLRLEIIDKDSKTRRLDIRAPLHPEKVCNTI
One may read the Kd as a measure of binding affinity in units of concentration. The low end stands for tighter binding, the high end for weaker binding. Take B3: the values for the Kd in [7], in [8] and in data set [9] were 0.4 µM, 0.5 µM and 0.1 µM, respectively.

B4: _(PARL)Skd3^ΔL507-I534 (NBD insertion deleted) (enzyme, human, UniProt Q9H078 127-707, looked up)
chain: YSKSPSNKDAALLEAARANNMQEVSRLLSEGADVNAKHRLGWTALMVAAINRNNSVVQVLLAAGADPNLGDDFSSVYKTAKEQGIHSLEDGGQDGASRHITNQWTSALEFRRWLGLPAGVLITREDDFNNRLNNRASFKGCTALHYAVLADDYRTVKELLDGGANPLQRNEMGHTPLDYAREGEVMKLLRTSEAKYQEKQRKREAEERRRFPLEQRLKEHIIGQESAIATVGAAIRRKENGWYDEEHPLVFLFLGSSGIGKTELAKQTAKYMHKDAKKGFIRLDMSEFQERHEVAKFIGSPPGYVGHEEGGQLTKKLKQCPNAVVLFDEVDKAHPDVLTIMLQLFDEGRLTDGKGKTIDCKDAIFIMTSNVASDEIAQHATISKNFKENVIRPILKAHFRRDEFLGRINEIVYFLPFCHSELIQLVNKELNFWAKRAKQRHNITLLWDREVADVLVDGYNVHYGARSIKHEVERRVVNQLAAAYEQDLLPGGCTLRITVEDSDKQLLKSPELPSPQAEKRLPKLRLEIIDKDSKTRRLDIRAPLHPEKVCNTI
Take B4: the “stoichiometry N” value in data set [5] stood at 12.
